In patent US20240108746A1 (Molecular Partners, published 2024):
Substitutions are numbered along the chain they refer to. Several values for one entry are separate records, joined by “and”; a condition that tells them apart may be missing. Equal entries are not always repeated.

T1: Biotinylated CD3-specific binding domain SEQ ID NO: 14 (biotinylated (site not stated))
T1 construct: Ligand on the neutravidin (NLC) SPR chip
T1 chain: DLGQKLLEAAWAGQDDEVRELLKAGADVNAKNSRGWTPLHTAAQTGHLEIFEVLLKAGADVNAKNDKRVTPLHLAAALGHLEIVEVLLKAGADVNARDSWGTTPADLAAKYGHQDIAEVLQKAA

T2: Biotinylated CD3-specific binding domain SEQ ID NO: 13 (biotinylated (site not stated))
T2 construct: Ligand on the neutravidin (NLC) SPR chip; The same domain is the CD3-specific domain of TCE #1
T2 chain: T1 chain with N65D, R68G, R97Q, Q114E

T3: TCE #1
T3 chain: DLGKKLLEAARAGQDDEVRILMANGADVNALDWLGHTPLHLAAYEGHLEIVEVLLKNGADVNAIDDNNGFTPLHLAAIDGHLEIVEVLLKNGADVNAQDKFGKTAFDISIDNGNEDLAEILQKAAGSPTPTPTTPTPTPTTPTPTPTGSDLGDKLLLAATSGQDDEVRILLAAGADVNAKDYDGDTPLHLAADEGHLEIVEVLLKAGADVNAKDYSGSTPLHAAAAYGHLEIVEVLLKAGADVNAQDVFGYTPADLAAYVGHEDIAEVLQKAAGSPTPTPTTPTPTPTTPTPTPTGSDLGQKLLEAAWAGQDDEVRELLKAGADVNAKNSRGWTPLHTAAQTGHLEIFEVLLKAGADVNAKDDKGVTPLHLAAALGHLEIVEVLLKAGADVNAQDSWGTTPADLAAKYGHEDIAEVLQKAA

T4: CD3-specific binding domain (SEQ ID NO:11)
T4 construct: Immobilized on beads in the sink chamber of the 'complex' Incucyte assay; also the first selection target; also called immobilized scavenger protein; bead-immobilized target protein
T4 chain: T1 chain with E20I, K23A, Q114G

T5: TCE #2
T5 construct: also called α-HSA×α-CD123×α-CD33×α-CD3 T-cell engager; TCE (with a half-life extending moiety)
T5 chain: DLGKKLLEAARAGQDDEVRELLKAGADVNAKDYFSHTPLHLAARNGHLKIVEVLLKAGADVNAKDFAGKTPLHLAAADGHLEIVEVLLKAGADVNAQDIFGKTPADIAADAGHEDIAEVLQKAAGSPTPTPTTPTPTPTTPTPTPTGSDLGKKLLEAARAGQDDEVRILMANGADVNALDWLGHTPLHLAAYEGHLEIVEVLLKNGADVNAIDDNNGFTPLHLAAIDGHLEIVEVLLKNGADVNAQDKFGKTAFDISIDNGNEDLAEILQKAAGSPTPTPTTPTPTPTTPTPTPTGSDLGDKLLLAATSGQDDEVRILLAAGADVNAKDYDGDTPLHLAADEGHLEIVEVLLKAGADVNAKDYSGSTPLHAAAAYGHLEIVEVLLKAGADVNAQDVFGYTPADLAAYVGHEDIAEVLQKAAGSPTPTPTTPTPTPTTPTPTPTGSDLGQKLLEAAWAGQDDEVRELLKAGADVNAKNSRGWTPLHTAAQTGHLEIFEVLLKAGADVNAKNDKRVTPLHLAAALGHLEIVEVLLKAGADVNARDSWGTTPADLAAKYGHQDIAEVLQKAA

B1: Binder #9 (designed binder)
chain: MRGSHHHHHHGSDLGKKLLQAARAGQLDEVRELLKAGADVNAKDHYGWTPLHLAASEGHLEIVEVLLKAGADVNAKDWIGWTPLHLAASFGHLEIVEVLLKAGADVNAKDVSGKTPLHIAARQGHLEIVEVLLKAGADVNAQDKSGKTPADLAARAGHQDIAEVLQLQKAA
B2: Binder #8 (designed binder)
chain: MRGSHHHHHHGSDLGKKLLQAARAGQLDEVRELLKAGADVNAKDHYGWTPLHIAAQRGHLEIVEVLLKAGADVNAKDWLGWTPLHVAASHGHLEIVEVLLKAGADVNAKDLSGRTPLHIAARQGHLEIVEVLLKAGADVNAQDKSGKTPADLAARAGHQDIAEVLQKAA
B3: Binder #5 (designed binder)
chain: B2 chain with R57I, L79I, W81Y, V86L, L111V, R114K, I119V, R122A, Q123H
B4: Binder #7 (designed binder)
chain: B2 chain with I53L, Q56A, R57E, L79I, W81Y, V86I, L111S, R114K, R122Q, Q123H
B5: Binder #6 (designed binder)
chain: B2 chain with H45Q, I53L, Q56Y, R57S, L79V, V86L, L111E, S112A, R122K
B6: Binder #2 (designed binder)
chain: MRGSHHHHHHGSDLGKKLLQAARAGQLDEVRELLKAGADVNAKDFKGLTPLHLAAAHGHLEIVEVLLKAGADVNAKDVYGWTPLHWAAASGHLEIVEVLLKAGADVNAKDWLGITPLHLAASHGHLEIVEVLLKAGADVNAQDKSGKTPADLAARAGHQDIAEVLQKAA
B7: Binder #4 (designed binder)
chain: B6 chain with A56E, S90K
B8: Binder #3 (designed binder)
chain: B6 chain with S90K
B9: Binder #1 (designed binder)
chain: B6 chain with W86I
notes: expressed in E. coli and purified by its His-tag
B10: Binder #10 (designed binder)
chain: B2 chain with I53L, Q56S, R57E, L79I, V86L, H90F, L111V, R114K

Molecular target: T1, Biotinylated CD3-specific binding …
Test: SPR (ProteOn XPR36), 33 C, multi-trace; biotinylated ligand on chip, binder as analyte
Protocol: (§1) Further SPR data were generated for Binders #1 to #9 (as listed in Example 1 above), binding to biotinylated CD3-specific binding domains having SEQ ID NOs: 13 and 14, respectively, on the chip. […] The blocking half-life (T_{1/2}) was then calculated.

| Kd | koff | kon | Binder |
| --- | --- | --- | --- |
| < 0.02 nM | < 5e-05 s⁻¹ |  | B1 |
| < 0.02 nM | < 5e-05 s⁻¹ |  | B2 |
| < 0.02 nM | < 5e-05 s⁻¹ |  | B3 |
| < 0.02 nM | < 5e-05 s⁻¹ |  | B4 |
| < 0.02 nM | < 5e-05 s⁻¹ |  | B5 |
| 0.032 nM | 2e-05 s⁻¹ | 630000 M⁻¹ s⁻¹ | B6 |
| 0.019 nM | 1.2e-05 s⁻¹ | 630000 M⁻¹ s⁻¹ | B7 |
| 0.029 nM | 1.9e-05 s⁻¹ | 650000 M⁻¹ s⁻¹ | B8 |
| 0.034 nM | 2.7e-05 s⁻¹ | 790000 M⁻¹ s⁻¹ | B9 |

Molecular target: T2, Biotinylated CD3-specific binding …
Test: as above
Protocol: as §1

| Kd | koff | kon | Binder |
| --- | --- | --- | --- |
| < 0.02 nM | < 5e-05 s⁻¹ |  | B1 |
| < 0.02 nM | < 5e-05 s⁻¹ |  | B2 |
| < 0.02 nM | < 5e-05 s⁻¹ |  | B3 |
| < 0.02 nM | < 5e-05 s⁻¹ |  | B4 |
| < 0.02 nM | < 5e-05 s⁻¹ |  | B5 |
| 0.028 nM | 4e-05 s⁻¹ | 1.43e+06 M⁻¹ s⁻¹ | B6 |
| 0.011 nM | 1.9e-05 s⁻¹ | 1.74e+06 M⁻¹ s⁻¹ | B7 |
| 0.016 nM | 2.8e-05 s⁻¹ | 1.7e+06 M⁻¹ s⁻¹ | B8 |
| 0.04 nM | 6.2e-05 s⁻¹ | 1.54e+06 M⁻¹ s⁻¹ | B9 |

Molecular target: T3, TCE #1
Test: cell-based or functional assay

| inhibition of TCE activity (complex Incucyte assay, functional sink chamber with beads coated with CD3-specific binding domain) | inhibition of TCE activity (complex Incucyte assay, sink chamber with non-coated beads) | loss of inhibition of TCE activity (simple Incucyte assay) | blocking of T-cell mediated tumor cell growth inhibition (simple Incucyte assay) | Binder | inhibition of TCE activity (simple Incucyte assay) |
| --- | --- | --- | --- | --- | --- |
| 12.3 molar ratio binder:TCE | 1.37 molar ratio binder:TCE | 1 molar ratio binder:TCE |  | B1 | 1 molar ratio binder:TCE and 4 fold molar excess of binder over TCE |
|  |  | 1 molar ratio binder:TCE | 4 fold molar excess of binder over TCE | B3 | 4 fold molar excess of binder over TCE |
|  |  | 4 fold molar excess of binder over TCE |  | B7 |  |

Molecular target: T1, Biotinylated CD3-specific binding …
Test: calculated from SPR koff (ln2/koff)
Protocol: as §1

| Blocking T1/2 | Binder |
| --- | --- |
| > 3.9 h | B1 |
| > 3.9 h | B2 |
| > 3.9 h | B3 |
| > 3.9 h | B4 |
| > 3.9 h | B5 |
| 9.6 h | B6 |
| 16 h | B7 |
| 10.1 h | B8 |
| 7.1 h | B9 |

Molecular target: T2, Biotinylated CD3-specific binding …
Test: calculated from SPR koff (ln2/koff)
Protocol: as §1

| Blocking T1/2 | Binder |
| --- | --- |
| > 3.9 h | B1 |
| > 3.9 h | B2 |
| > 3.9 h | B3 |
| > 3.9 h | B4 |
| > 3.9 h | B5 |
| 4.8 h | B6 |
| 10.1 h | B7 |
| 6.9 h | B8 |
| 3.1 h | B9 |

Molecular target: T4, CD3-specific binding domain (SEQ ID …)
Test: bead-immobilized scavenger protein in the sink chamber of the complex Incucyte assay
Protocol: In the experiment described here, a TCE (TCE #1) was used as drug molecule.
As in Example 4, a tumor cell line expressing the TAA was used as target cell line which has been transduced with Incucyte Nuclight Red Lentivirus for detection by the Incucyte® camera. PanT-cells were added, together with different prodrug complexes. […] Additionally, unbound TCE #1 (10 pM) as well as background (i.e. no prodrug complex or TCE, but with beads) served as controls. Tumor cell growth was measured for a period of 5 days by determining the area of red objects detected by the Incucyte® camera.

| binding result | Binder |
| --- | --- |
| binds | B1 |

Molecular target: T3, TCE #1
Test: cell-based or functional assay
Remark: another data set of the same source

| Binder | IC50, inhibition of TCE #1 (10 pM) mediated tumor cell killing (LDH release, OD492nm-620nm, 48 h) |
| --- | --- |
| B1 | 51.8 pM |
| B3 | 16 pM |
| B7 | 26.3 pM |

Molecular target: T3, TCE #1
Test: cell-based or functional assay
Remark: another data set of the same source

| IC50, inhibition of TCE #1 (10 pM) mediated T-cell activation (CD25+ T-cells, % of CD8+, 48 h) | Binder |
| --- | --- |
| 83.8 pM | B1 |
| 18.4 pM | B3 |
| 33.8 pM | B7 |

Molecular target: T5, TCE #2
Test: not stated (affinity to the CD3 effector moiety of TCE #2)

| Kd | Binder |
| --- | --- |
| ~0.04 nM | B9 |

Molecular target: T1, Biotinylated CD3-specific binding …
Test: SPR (comparable assays)

| binding result | Binder |
| --- | --- |
| binds | B10 |

Molecular target: T2, Biotinylated CD3-specific binding …
Test: SPR (comparable assays)

| binding result | Binder |
| --- | --- |
| binds | B10 |

Molecular target: T3, TCE #1
Test: not stated in the sentence (affinity quoted for the Incucyte experiment with TCE #1)

| Kd | Binder |
| --- | --- |
| ≤ 0.006 nM | B3 |

Molecular target: T5, TCE #2
Test: not stated (affinity to the CD3 effector moiety of TCE #2); Binder #4, double-digit pM

| Kd | Binder |
| --- | --- |
| ~0.02 nM | B7 |

Molecular target: T5, TCE #2
Test: not stated (affinity to the CD3 binding domain of TCE #2); Binder #10, 1 pM or lower

| Kd | Binder |
| --- | --- |
| ≤ 0.001 nM | B10 |
